A word on the Kd: it is the free concentration of one partner at which half of the binding sites on the other are occupied at equilibrium, for simple one-to-one binding. High values mean weaker binding, low ones tighter binding.

Residue numbers refer to the chain shown, from its start. Numbers in names are those of the source.

The labels stand for the following.
B1: BJM0387 (bispecific antibody, not shown: a dimerising Fc or GST; large carriers)
heavy: QVQLVQSGAEVKKPGSSVKVSCKASGYSFTTYYIHWVRQAPGQGLEWMGWFFPGSGNIKYNEKFKGRVTITADTSTSTAYMELSSLRSEDTAVYYCAGSYYSYDVLDYWGQGTTVTVSSGGGGSGGGGSGGGGSGGGGSDIQMTQSPSFLSASVGDRVTITCKASQNVGINVVWHQQKPGKAPKALIYSSSHRYSGVPSRFSGSGSGTEFTLTISSLQPEDFATYFCQQFKSYPLTFGQGTKLEIKGGGGSQVQLVQSGAEVKKPGSSVKVSCKASGYTFTDYNMHWVRQAPGQGLEWIGYIYPYNGGTGYNQKFKSKATITADESTNTAYMELSSLRSEDTAVYYCARGRPAMDYWGQGTLVTVSS
light: DIQMTQSPSSLSASVGDRVTITCRASESVDNYGISFMNWFQQKPGKAPKLLIYAASNQGSGVPSRFSGSGSGTDFTLTISSLQPDDFATYYCQQSKEVPWTFGQGTKVEIK
notes: also called anti-CD33×TCRvβ antibody BJM0387
B2: BJM1078 (antibody, V domains shown)
VH: EIQLLESGGGLVQPGGSLRLSCAVSGFSITTTGYHWNWVRQAPGKGLEWVGYIYSSGSTSYNPSLKSRFTISRDTSKNTFYLQMNSLRAEDTAVYYCARGDWHYFDYWGQGTMVTVSS
VL: SSETTQPPSVSVSPGQTASITCSGEKLSDKYVHWYQQKPGQSPVMVIYENDRRPSGIPERFSGSNSGNTATLTISGTQAMDEADYFCQFWDSTNSAVFGGGTQLTVL
notes: only 'BJM0407 Parental'; also called BJM0407 Parental
B3: BJM1079 (scFv)
scFv: EIQLLESGGGLVQPGGSLRLSCAVSGFSITTTGYHWNWVRQAPGKGLEWVGYIYSSGSTSYNPSLKSRFTISRDTSKNTFYLQMNSLRAEDTAVYYCARGDWHYFDYWGQGTMVTVSSGGGGSGGGGSGGGGSGGGGSDSVTTQSPLSLPVTLGQPASISCSGEKLSDKYVHWYQQRPGQSPRMLIYENDRRPSGVPDRFSGSNSGNDATLKISRVEAEDVGVYFCQFWDSTNSAVFGGGTKVEIK
notes: only 'BJM0411 Parental'; also called BJM0411 Parental
B4: BKM0139 (scFv)
scFv: B3 scFv with D230A
notes: also called BJM0411 VL-D92A
B5: BKM0144 (scFv)
scFv: B3 scFv with N62A, D230A, N233A
notes: also called BJM0411 VH-N60A-VL-D92A-N95A
B6: BKM0138 (scFv)
scFv: B3 scFv with N233A
notes: also called BJM0411 VL-N95A
B7: BKM0142 (scFv)
scFv: B3 scFv with N62A
notes: also called BJM0411 VH-N60A
B8: BKM0140 (scFv)
scFv: EIQLLESGGGLVQPGGSLRLSCAVSGFSITTTGYHWNWVRQAPGKGLEWVGYIYSSGSTSYNPSLKSRFTISRDTSKNTFYLQMNSLRAEDTAVYYCARGDWHYFDYWGQGTMVTVSSGGGGSGGGGSGGGGSGGGGSSSETTQPPSVSVSPGQTASITCSGEKLSDKYVHWYQQKPGQSPVMVIYENDRRPSGIPERFSGSNSGNTATLTISGTQAMDEADYFCQFWASTNSAVFGGGTQLTVL
notes: also called BJM0407 VL-D92A
B9: BKM0145 (scFv)
scFv: B8 scFv with N62A, N232A
notes: also called BJM0407 VH-N60A-VL-D92A-N95A
B10: BKM0143 (scFv)
scFv: B8 scFv with N62A, A229D
notes: also called BJM0407 VH-N60A
B11: BKM0141 (scFv)
scFv: B8 scFv with A229D, N232A
notes: also called BJM0407 VL-N95A
B12: BJM0898 (antibody, V domains shown)
VH: QVQLVQSGAEVKKPGSSVKVSCKASGTDFKLTYIHWVRQAPGQGLEWMGRIFPGSGNVKYNEKFKGRVTITADTSTSTAYMELSSLRSEDTAVYYCAVSYYSYDVLDYWGQGTTVTVSS
VL: DIQMTQSPSFLSASVGDRVTITCKASQNVDNRVAWYQQKPGKAPKALIYSSSHRYKGVPSRFSGSGSGTEFTLTISSLQPEDFATYFCQQFKSYPLTFGQGTKLEIK
B13: BJM0900 (antibody, V domains shown)
VH: B12 VH with T27H, K30R, F52S, P53A
VL: B12 VL with D30A, N31D

The first assay deals with T1, CD33 expressed on cells (MOLM-13, MV411, HL60) (human, UniProt P20138 18-364).
T1 construct: whole, on cells; also called CD33+ MOLM-13 cells; CD33-expressing MOLM-13 cells
T1 sequence (P20138 18-364): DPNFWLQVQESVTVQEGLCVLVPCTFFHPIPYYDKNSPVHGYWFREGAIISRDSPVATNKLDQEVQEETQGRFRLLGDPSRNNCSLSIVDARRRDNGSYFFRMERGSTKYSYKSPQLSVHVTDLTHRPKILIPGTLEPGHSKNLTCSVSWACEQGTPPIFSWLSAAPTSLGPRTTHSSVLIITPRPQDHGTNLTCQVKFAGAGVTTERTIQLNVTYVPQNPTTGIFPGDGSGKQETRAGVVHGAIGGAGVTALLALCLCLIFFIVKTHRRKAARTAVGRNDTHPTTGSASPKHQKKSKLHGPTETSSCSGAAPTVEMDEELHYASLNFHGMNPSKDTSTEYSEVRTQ
The experiment in a line: binding to CD33+ MOLM-13 cells (cell binding assay).
On to B1, for which the binding result is given as “binds”.

A further assay addresses T2, Human NKp30 (BKM0179) (human, UniProt O14931 19-135, limits assumed).
T2 sequence (looked up): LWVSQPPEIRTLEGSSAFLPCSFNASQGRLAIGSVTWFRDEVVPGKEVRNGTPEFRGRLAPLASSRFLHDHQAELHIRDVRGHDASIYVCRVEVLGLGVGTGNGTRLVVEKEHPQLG
The assay is described as follows: SPR (Biacore T200): human NKp30 BKM0179 captured via anti-mouse Fc on CM5, antibody as analyte, 1:1 fit. For orientation: In SPR one partner is held on a chip, and binding of the other changes the refractive index at the surface.
B2 showed a dissociation constant (Kd) of 1.48 nM.
On the same count and under the same terms, under B3 stands 1.26 nM.
Same read-out and setting: under B4 stands 3.2 nM; under B5, 6.4 nM.
The same measure, in the same setting: the value for B6 was 3.2 nM; that for B7 was 1.28 nM; that for B8 was 3.3 nM.
Molecule B9 gave a Kd of 4.2 nM.
Still for that read-out and setting: under B10 stands 1.45 nM.
Take B11: the affinity, expressed as Kd, was 3 nM.

In the next assay the target is T3, human TCRvβ (BIM0444) (human).
T3 construct: also called human TCRβvP; human TCRvβ 6-5
T3 sequence (A0A0K0K1A5 22-114): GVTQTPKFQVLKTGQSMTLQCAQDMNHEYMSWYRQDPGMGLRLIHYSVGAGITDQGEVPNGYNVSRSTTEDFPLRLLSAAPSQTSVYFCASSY
The experiment in a line: SPR (Biacore): antibody captured via anti-human Fc on CM5, BIM0444 as analyte, 1:1 fit.
As to B12, the Kd came out at 11 nM. This counts as double-digit nanomolar.
Turning to B13, the Kd was 2.7 nM.

(Values after patent US20230102344A1 (MARENGO THERAPEUTICS, published 2023).)
